Data from patent US7338938B2, “Methods for treating a patient undergoing chemotherapy” (University of Southern California, priority 1999, dated 2008).
Read-outs that look alike come from different tables or passages of the source.

What was measured:
[1] = test system: mice injected with 150 mg/kg 5FU intravenously (WBC, platelets, hemoglobin); assay: Effect of angiotensin fragments and ACE inhibitor on recovery after chemotherapy (Example 4); type: in vivo; details: after i.v. 5FU
Description: The next study was designed to test the effect of angiotensin peptides and the angiotensin converting enzyme inhibitor, enalapril, on recovery of white blood cells, platelets and hemoglobin after chemotherapy, as well as on granulocyte-macrophage colony forming units (GM-CFU) in the blood and bone marrow.
Female […] mice (4 per group), 6-8 weeks old, were injected with 150 mg/kg 5FU intravenously. Administration of the peptides (AII (100 μg/kg/day), AII(1-7) (10 or 100 μg/kg/day), AII(1-5) (10 or 100 μg/kg/day), and AII(1-6) (100 μg/kg/day)), by subcutaneous injection, or enalapril (30 mg/kg/day) by oral gavage, was begun 2 days after administration of the antineoplastic and continued daily until 28 days after 5FU administration, at which time the mice were euthanized for evaluation of white blood cell numbers, platelets, hemoglobin levels and the number of GM-CFU in the bone marrow and peripheral blood. On days 7, 10, 14 and 21 after 5FU administration, blood was taken under anesthesia from the retro-orbital sinus to assess white blood cell number, platelet number, and hemoglobin levels.
The mice were bled from the retro-orbital sinus at days 7, 10, 14 and 21. The mice were anesthetized with Metofane (an inhaled anesthesia). Approximately 150-200 μl of blood were obtained from the retro-orbital sinus with a heparinzed capillary tube. The blood was then placed in a 1.7 ml microfuge tube containing 10 mM EDTA and held on ice until further processing.
One hundred μl of blood was pipetted into a centrifuge tube, to which 900 μl of distilled water was added. The blood and water were mixed by inversion and allowed incubate at 4° C. for 20 minutes. The tube was then centrifuged at 12000 rpm to precipitate the cellular debri for 20 to 30 minutes at room temperature. Twenty μl of the supernatant from this centrifugation was then added into triplicate wells of a 96 well plate containing 180 μl of distilled water. The optical density, was then read using a microplate reader at […].
Twenty μl of blood was mixed with 200 μl of red blood cell (RBC) lysing solution (0.83% NH4Cl, 10 mM EDTA, 0.5% NaHCO3). The mixture was then incubated for 10 minutes at 4° C. After this incubation, the supernatant was removed and the pellet was resuspended in 100 μl of PBS. To this, 100 μl of 0.04% trypan blue was added. This mixture was vortexed and the number of WBC (baseline was approximately 10^7 cells/ml) was evaluated by hematocytometer under light microscopy and the number: of platelets (baseline was approximately 2.5×10^8 platelets/ml) was evaluated by hematocytometer under phase contrast microscopy.
The blood was harvested by cardiac puncture on day 10 to assess mobilization of myeloid progenitors into the peripheral blood. The femurs and tibia were also collected and the bone marrow was harvested by flushing with PBS containing 2% fetal calf serum. After collection of the blood and bone marrow, the red blood cells were lysed with a hypotonic solution (described above), mixed with 0.04% trypan blue, and the number of nucleated cells assessed by hematocytometer under light microscopy. Aliquots of cells were then resuspended at 1×10^5 cells/ml (bone marrow) or 1×10^6 cells/ml Flood). […]

[2] = test system: patients with newly diagnosed breast cancer receiving doxorubicin and cyclophosphamide; assay: Phase I/II dose escalation study of AII(1-7) before and after chemotherapy (Example 5); details: in vivo
[3] = test system: patients with newly diagnosed breast cancer receiving doxorubicin and cyclophosphamide
[4] = test system: female C57B1/6 mice treated with 200 mg/kg cytoxan
[5] = animal daily doses 10 to 1,000 μg/kg for 30 days; human 2.5 to 100 μg/kg/day
Description: Based upon safety evaluation studies in animals (where the daily doses tested ranged from 10 to 1,000 μg/kg for 30 days) and the pharmacology profile of, AII(1-7), the dose range used in humans ranged from 2.5 to 100 μg/kg/day over at least 10 days.

## Asp-Arg-Val-Tyr-Ile-His-Pro [AII(1-7)]
[1]
  platelets after administration: increase in platelets
[2]
  drug related serious adverse events: No drug related serious adverse events
  safety (summary): safe without observed dose limiting toxicities
[3]; 50 μg/kg/day AII(1-7)
  change in platelet number: only day 12 showed any change in platelet number
[3]; 2.5 to 100 μg/kg/d
  dose-limiting toxicities: No dose-limiting toxicities
[3]; AII(1-7) 2.5 μg/kg
  Toxicity: ANC < 1000/μl (frequency): 100%
  Toxicity: Hgb < 10 gm/dl (frequency): 66%
  Toxicity: Lymph < 500/μl (frequency): 66%
  Toxicity: Platelet < 80 K/μl (frequency): 0%
  Toxicity: WBC < 2000/μl (frequency): 66%
[3]; AII(1-7) 10 μg/kg
  Toxicity: ANC < 1000/μl (frequency): 100%
  Toxicity: Hgb < 10 gm/dl (frequency): 33%
  Toxicity: Lymph < 500/μl (frequency): 33%
  Toxicity: Platelet < 80 K/μl (frequency): 0%
  Toxicity: WBC < 2000/μl (frequency): 66%
[3]; AII(1-7) 50 μg/kg
  Toxicity: ANC < 1000/μl (frequency): 100%
  Toxicity: Hgb < 10 gm/dl (frequency): 0%
  Toxicity: Lymph < 500/μl (frequency): 33%
  Toxicity: Platelet < 80 K/μl (frequency): 0%
  Toxicity: WBC < 2000/μl (frequency): 66%
[3]; AII(1-7) 75 μg/kg
  Toxicity: ANC < 1000/μl (frequency): 100%
  Toxicity: Hgb < 10 gm/dl (frequency): 0%
  Toxicity: Lymph < 500/μl (frequency): 0%
  Toxicity: Platelet < 80 K/μl (frequency): 0%
  Toxicity: WBC < 2000/μl (frequency): 100%
[3]; AII(1-7) 100 μg/kg
  Toxicity: ANC < 1000/μl (frequency): 100%
  Toxicity: Hgb < 10 gm/dl (frequency): 0%
  Toxicity: Lymph < 500/μl (frequency): 0%
  Toxicity: Platelet < 80 K/μl (frequency): 0%
  Toxicity: WBC < 2000/μl (frequency): 33%
[3]; across doses
  platelets: dose-dependent increase in platelets
[3]; all doses
  restoration of hemoglobin prior to the next cycle: restoration of hemoglobin prior to the next cycle was observed
[3]; before or after chemotherapy
  over-production of formed blood elements: No over-production of formed blood elements
[3]; chemotherapy patients
  Alopecia (frequency by treatment group): 46%
  Anemia (frequency by treatment group): 7%
  Fatigue (frequency by treatment group): 93%
  Headache (frequency by treatment group): 26%
  Myalgia/Muscle-skeletal pain (frequency by treatment group): 53%
  Nausea (frequency by treatment group): 93%
  Stomatitis (frequency by treatment group): 40%
  Vomiting (frequency by treatment group): 80%
[3]; compared to filgrastim
  frequency of grade 2-4 anemia: reduced the frequency
  frequency of grade 2-4 thrombocytopenia: reduced the frequency
  frequency of grade 3-4 lymphopenia: reduced the frequency
  late neutrophil recovery: enhanced compared to filgrastim
[3]; following 10-12 days of AII(1-7), as little as 1 dose of filgrastim normalizes the neutrophil count
  synergy between filgrastim and AII(1-7): possible synergy
[3]; in vivo
  ability to maintain on cycle, full intensity chemotherapy: permitted the patients to maintain full intensity chemotherapy on cycle
  cycle delays due to neutropenia: No cycle delays due to neutropenia
  dose at which anemia correction with each cycle was observed: ≥ 2.5 µg/kg
  dose intensity of chemotherapy received by all study patients: 100%
  doses that appear to be active: greater than 10 μg/kg/day
  hematopoietic lineages: increase in multiple hematopoietic lineages
  level of nadir in number of white blood cells and absolute neutrophil count and time to these nadirs: dose dependent increase
  mobilization of hematopoietic progenitors into the peripheral blood: mobilization of hematopoietic progenitors into the peripheral blood
  neutrophil nadirs: not affected
  optimal dosage range: 50 to 75 µg/kg/day
  recovery towards baseline in formed blood elements: improves the recovery towards baseline in all formed blood elements
[3]; lowest dose of AII(1-7)
  day of nadir in platelet number: 12 days
  hemoglobin after chemotherapy: reduction in hemoglobin was observed
  hemoglobin level by the next cycle: returned to baseline levels by the next cycle
[3]; next higher dose than 50 μg/kg/day
  change in platelet number: no decrease in platelet number occurred
[3]; of that observed with filgrastim treatment
  reduction of the frequency of stomatitis: 30%
[3]; patients treated at 2.5 and 10 μg/kg AII(1-7)
  doses of filgrastim needed at day 15 to treat grade 4 neutropenia: 1-2 doses
[3]; patients with or without a history of hypertension
  acute effect on blood pressure following administration: No acute affect on blood pressure
[3]; relative to historical numbers and filgrastim controls
  frequency of headache, muscle pain and alopecia: decreasing the frequency
[3]; subsequent dose increases of AII(1-7)
  anemia: slight to no anemia
[4]; 100 μg/kg/day, started 2 days prior to cytoxan
  number of GM-CFU in the bone marrow: slightly reduced
[4]; administration initiated 2 days after chemotherapy
  number of myeloid progenitor cells in the bone marrow: increased the number of myeloid progenitor cells in the bone marrow
[4]; administration initiated after cyclophosphamide treatment
  number of myeloid progenitors in the peripheral blood: increased the number of myeloid progenitors in the peripheral blood
[4]; s.c. treatment initiated two days after the chemotherapeutic
  recovery of WBC after intravenous cyclophosphamide: accelerated the recovery of WBC
[4]; treatment initiated two days after cyclophosphamide
  time after cyclophosphamide at which increase in WBC number was observed: ≤ 9 days
[4]; treatment initiated two days prior to cyclophosphamide, starting on day 14
  WBC number compared with control: decrease in WBC number compared with control
[5]
  safety margin of human dose range over the animal exposures: 9-10 fold
